# ± gives the standard deviation of the averaged measurements.
# System: ATP
# Assay: switch fluorescence ratio, 500 uM ATP over buffer (Cy3 cluster intensity, sum of 5 cycles each) (fold (ratio)); higher = stronger signal-on switching upon ATP binding; sequences stand for … in TCGTCGGCAGCGTCAGATGTGTATAAGAGACAGTTTTTTTTTTTTTTTTTTTTTTTTT…TC
# Conditions: aptamer strand: ATP DNA aptamer (quencher-CACCTGGGGGAGTATTGCGGAGGAAGG + anchor), 100 nM annealed; ATP concentration: 500 uM
# Summary of the method: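 Five buffer/ATP imaging cycles were run on Cy3-labelled switching-strand clusters on a modified Illumina MiSeq flow-cell, with NaOH stripping and re-annealing between cycles. In each cycle, clusters annealed to 100 nM quencher-labelled ATP aptamer were imaged in selection buffer, then after 15 min with 500 uM ATP at 22 °C. Per cluster, the fluorescence ratio is summed target-cycle over summed buffer-cycle Cy3 intensity, averaged per switch-domain sequence. Only clusters within 100-1000 RFU were kept.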
# 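Also: ATP exposure 15 min at 22 °C before imaging.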
row,Sequence,switch fluorescence ratio
1,ATAATATTGT,0.999 ± 0.0022
2,ATAATCGGCA,1.01 ± 0.054
3,ATAATCTGGT,0.9965 ± 0.0049
4,ATAATGCTCT,1.02 ± 0.024
5,ATAATGGCCT,1.02 ± 0.026
6,ATAATGGGGT,1.026 ± 0.0044
7,ATAATGTACA,1.04 ± 0.011
8,ATAATGTGGG,0.99618 ± 0.00014
9,ATAATGTTTT,1 ± 0.021
10,ATAATTAATT,0.958 ± 0.03
11,ATAATTCTAT,0.9819 ± 0.008
12,ATACAAGTCT,1.03 ± 0.059
13,ATACACGGCA,1.11 ± 0.03
14,ATACAGCACC,1.45 ± 0.048
15,ATACAGGGGG,1.02 ± 0.067
16,ATACATCTAG,0.996 ± 0.044
17,ATACCTGAG,1.53 ± 0.057
18,ATACGAGGTC,1.01 ± 0.03
19,ATACGAGGTG,1.07 ± 0.035
20,ATACGCTGGT,0.9993 ± 0.0042
21,ATACGGAGGC,1.03 ± 0.1
22,ATACGGGAGC,1.01 ± 0.048
23,ATACGGGGAT,1.014 ± 0.0093
24,ATACGGGGTT,1.008 ± 0.0032
25,ATACGGGTTT,1.024 ± 0.0097

row,Sequence,switch fluorescence ratio
1,ATACGGTTTT,0.996 ± 0.026
2,ATACGTAGTC,1.07 ± 0.014
3,ATACTAGGAG,1 ± 0.026
4,ATACTAGGGG,1.01 ± 0.02
5,ATACTCTGTT,0.9926 ± 0.0031
6,ATACTGAGGA,1.05 ± 0.026
7,ATACTGGTAG,1.02 ± 0.047
8,ATACTGTTAC,1.359 ± 0.0057
9,ATACTTAGGT,1.07 ± 0.1
10,ATACTTGTAT,1.0048 ± 0.00054
11,ATAGAAGAGA,0.985 ± 0.027
12,ATAGAAGTTA,0.985 ± 0.031
13,ATAGACAGGC,1.04 ± 0.021
14,ATAGACGCTA,1.12 ± 0.017
15,ATAGACGGTT,1.02 ± 0.048
16,ATAGACTAGA,0.9856 ± 0.003
17,ATAGACTGAG,0.983 ± 0.012
18,ATAGACTTCT,0.9966 ± 0.0064
19,ATAGACTTTA,1.04 ± 0.043
20,ATAGAGTGGG,0.966 ± 0.019
21,ATAGATGGTG,0.987 ± 0.025
22,ATAGATTGCC,0.993 ± 0.022
23,ATAGCAGTTA,1.02 ± 0.01
24,ATAGCCGGAC,1.081 ± 0.008
25,ATAGCCGGGT,1.04 ± 0.088

row,Sequence,switch fluorescence ratio
1,ATAGCGGAGA,1 ± 0.036
2,ATAGCTCTTA,0.9764 ± 0.0074
3,ATAGCTGGAA,0.9678 ± 0.0011
4,ATAGCTTCAC,1.15 ± 0.015
5,ATAGGAAGGA,1.04 ± 0.056
6,ATAGGAATGG,1.02 ± 0.023
7,ATAGGAGGGC,0.935 ± 0.036
8,ATAGGAGTGG,0.964 ± 0.053
9,ATAGGATGGA,1 ± 0.029
10,ATAGGATGTG,1.01 ± 0.023
11,ATAGGCCTTG,1.01 ± 0.031
12,ATAGGCGGTT,1.02 ± 0.012
13,ATAGGGCCAG,1.06 ± 0.067
14,ATAGGGGCAG,0.996 ± 0.03
15,ATAGGGGCTT,0.9989 ± 0.0085
16,ATAGGGGGCA,0.98 ± 0.023
17,ATAGGGGGTA,1 ± 0.015
18,ATAGGGGTTC,0.994 ± 0.035
19,ATAGGGTCGG,1.02 ± 0.063
20,ATAGGGTTTC,0.99 ± 0.01
21,ATAGGTCTGC,0.975 ± 0.038
22,ATAGTAAGCC,1.04 ± 0.031
23,ATAGTAATCG,0.988 ± 0.064
24,ATAGTAGGGG,0.994 ± 0.045
25,ATAGTAGTCG,1.03 ± 0.1

row,Sequence,switch fluorescence ratio
1,ATAGTATATG,0.9786 ± 0.0088
2,ATAGTATTGA,0.969 ± 0.022
3,ATAGTGAGTA,0.996 ± 0.018
4,ATAGTGCTTG,0.988 ± 0.046
5,ATAGTGGCGC,0.997 ± 0.016
6,ATAGTTACGC,1.03 ± 0.022
7,ATAGTTATTT,0.989 ± 0.014
8,ATAGTTGGGG,1.02 ± 0.045
9,ATAGTTTTCG,1 ± 0.034
10,ATATAAAACG,0.983 ± 0.018
11,ATATAAATTT,1 ± 0.025
12,ATATAACAGG,1.03 ± 0.048
13,ATATAATTTT,0.979 ± 0.031
14,ATATACCGTC,1.05 ± 0.028
15,ATATAGAGG,1.02 ± 0.019
16,ATATAGGGTT,1.04 ± 0.038
17,ATATAGTCTG,0.9893 ± 0.0046
18,ATATATATGG,1.03 ± 0.035
19,ATATATCGGG,0.999 ± 0.013
20,ATATATTCC,1.1 ± 0.019
21,ATATATTTTA,1.01 ± 0.022
22,ATATCAATC,1.02 ± 0.034
23,ATATCAATGG,1.058 ± 0.0082
24,ATATCCCAGG,4.21 ± 0.64
25,ATATCCCTCG,1.01 ± 0.013

# Source: the supplement of paper PMC10126150
